B1: BDBV223 (antibody, V domains shown)
VH: QVQLQQWGAGLLKPSETLSLTCAVYGGSFTTTYWNWIRQPPGKGLEWIGEVNYSGNANYNPSLKGRVAISVDTSKNQFSLRLNSVTAADTAIYYCTSRIRSHIAYSWKGDVWGKGTTVTVSS
VL: EIVMTQSPGTLSLSPGERATLSCRASQSVPRNYIGWFQQKPGQAPRLLIYGASSRAAGFPDRFSGSGSGTDFTLTITRLEPEDFAMYYCHQYDRLPYTFGQGTKLEIK
B2: EBOV62 (antibody, V domains shown)
VH: EVQLVESGGGLVQPGGSLRLSCAASGFTFSSYWMSWVRQAPGKGLEWVANIKQDGSAKYYVDSVKGRFTISRDNAKNSLYLQMNSLRAEDTAVYYCARDGLLGISDLLYPIYYFDYWGQGTLVTVSS
VL: DIVMTQSPSSLSASVGDRVTITCRASQNIGSYLNWYQQKPGKAPNLLMYAASSLQSGVPSRFSGSGSGTDFTLTITSLQPEDFATYYCQQSYSIPRTFGQGTQLEIK

How the values were obtained:
[1] = target: BDBV GP on virus (BDBV (Bundibugyo ebolavirus)); experiment: cell-based or functional assay
[2] = target: BDBV GP (recombinant, full-length extracellular domain) (BDBV (Bundibugyo ebolavirus)); experiment: ELISA, GP coated on plate, mAb serially diluted

| Binder | IC50, neutralization of BDBV [1] [µg/mL] | EC50 [2] [µg/mL] |
| --- | --- | --- |
| B1 | 0.005 | – |
| B2 | – | 508 |

From US20200200749A1
